The DeepSol protein solubility set

Assay: soluble on expression in E. coli; label from the status in PepcDB or PDB records

Sequence | soluble on expression in E. coli
MPMTLGYWNIRGLAHSIRLLLEYTDSSYEEKKYTMGDAPDYDRSQWLNEKFKLGLDFPNLPYLIDGTHKITQSNAILRYIARKHNLCGESEKEQIREDILENQFMDSRMQLAKLCYDPDFEKLKPEYLQALPEMLKLYSQFLGKQPWFLGDKITFVDFIAYDVLERNQVFEPSCLDAFPNLKDFISRFEGLEKISAYMKSSRFLPRPVFSKMAVWGNK | soluble
AKITKVQVGEALVGDGNEVAHIDLIIGPRGSPAETAFCNGLVNNKHGFTSLLAVIAPNLPCKPNTLMFNKVTINDARQAVQMFGPAQHGVAMAVQDAVAEGIIPADEADDLYVLVGVFIHWEAADDAKIQKYNYEATKLSIQRAVNGEPKASVVTEQRKSATHPFAANA | soluble
MGSDKIHHHHHHMDLGAPIGAHGNQPETEAATQCEIVLQGPTCGFPSWTRHCNIDCIRDFQPFDRLMKQGQRKTKLEFHNDGRLLAAQGDDICGPDLAFYRVTLSLQQRFDRGVEILFTFHPGHACPGSVSMAMCPRLIFMRNTMNRLLSRAQRSGDRRHALGHSGAVPATLRPFLSLICFCLVAVWMATPLRAACSGLDLRESAAPGMWAEIEAEIALTPFARGLSWVATRGDRRLHIIGTMHLNDPRHDALVAHMAPAIQAADAVLLEVNRADKARLERTLAETPSLIFITEGPTLIDRLPPEEWDEIAERAGAAGIPPFMAAKMRPWFLSLSMSVPLCARAIEDVTDGLDMKLMTLAERAGVETLSLEDPLGLFQLFDATPIEEQIKELRSYIAMAGVGADDFYTMVESYFDGEVQAYVLLQLKQFLTSESDLSVAERQAQVDDLLEALLYQRNRDWIPVIEATAGNRLVIAVGAAHLPGEAGVLALLEAEGYQIEEALR | not soluble
MGHHHHHHSHGPRDIISPELMADYLQPKLLGILAFFNMQLLSSSVGIEDKKMALNSLMSLMKLMGPKHVSSVRVKMMTTLRTGLRFKDDFPELCCRAWDCFVRCLDHACLGSLLSHVIVALLPLIHIQPKETAAIFHYLIIENRDAVQDFLHEIYFLPDHPELKKIKAVLQEYRKETSEST | not soluble
MSLNTQQGLDEIERIAADETVVANVESEAEVKMAETIPVETPPAVVPSVDDSSLYIHRELSQLQFNIRVLEQALDESYPLLERLKFLLIFSSNLDEFFEIRIAGLKKQITFAREQAGADGLLPHQALARISELVHEQVSRQYRILNETLLPELAKHQIRFIRRRHWTLKIKTWVRRFFRDEIAPIITPIGLDPTHPFPLLVNKSLNFIVELEGMDAFGRDSGLAIIPAPRLLPRIIRLPEDVGGEGDNYVFLSSMIHAHADDLFPGMKVKGCYQFRLTRNADLSVDTEDVEDLARALRGELFSRRYGDAVRLEVVDTCPQNLTNYLLKQFGLSESELYKVSGPVNLTRLFSVTGLESHPELQYPPFTPAIPRLLQKKENLFNVLSKLDVLLMHPFESFTPVIDLLRQAAKDPNVLAIKQTLYRSGANSEIVDALVEAARNGKEVTAVIELRARFDEESNLQLASRLQQAGAVVIYGVVGFKTHAKMMLILRREDGELRRYAHLGTGNYHAGNARLYTDYSLLTADVALCEDLHKLFNQLIGMGKTLRMKKLLHAPFTLKKNLLEMINREAAQAALGQPAHIMAKVNSLTDPKVIRALYKASQAGVRIDLVVRGMCCLRPGIPGVSHNIHVRSIIGRFLEHSRIYYFLNGGDEKLYLSSADWMERNLDMRVETCFPVEGKKLVQRVKKELETYLTDNTQAWVLQADGSYQRLSPTGNQNPRNTQATLLEKLAAPVLTAREGHHHHHH | soluble
MNKQRFVVIDVETTGNSPKKGDKIIQIAAVVIENGQITERFSKYINPNKSIPAFIEQLTGISNQMVENEQPFEAVAEEVFQLLDGAYFVAHNIHFDLGFVKYELHKAGFQLPDCEVLDTVELSRIVFPGFEGYKLTELSEELQLRHDQPHRADSDAEVTGLIFLEILEKLRQLPYPTLKQLRRLSQHFISDLTHLLDMFINENRHTEIPGYTRFSSFSVREPEAIDVRINEDENFSFEIESWEAGNEKALSELMPGYEKRDGQMMMMREVADAFANREHALIEAPPGIGKTIGYLIPAALFAKKSKKPVIISTYSTLLQQQILTKDLPIVQDLFPFPVTAAILKGQSHYLCLYKFEQVLHEEDDNYDAVLTKAQLLVWLTETNTGDVAELNLPSGGKLLWDRLAYDDDSYKRSRSEHVIGFYERAKQIAMRSDLVITNHSLLLTDEGSHKKRLPESGTFIIDEAHHFERAASEHLGKRATYIELHTKLSRIGTLKEQGLLKKMRQLFQRNSLPVDSFFELEEWLQHVQAESDAFFSSVHSFVKRRKPKEDLNRLVFKVNKESQDKSWSILTDGAERLCSMLTHLQQLFEAQSSLMEKHLKGMKSKTVFLADEYQRSMKGLQHYCQTLQKLFFGSDDDEAVWIEIDAKGAKNAVAIYAQPLEPGELLADQFFARKNSVVLTSATLTVEGSFQFMIERLGLSDFFPRTMRIESPFSYDERMQVMIPKEMKSIQDTGQPEFIQDTARYIELMAKEKQPKILVLFTSHDMLKKVHQELKHNMSASGIQLLAQGITGGSPGKLMKTFKTSNQAILLGTNHFWEGVDFPGDELTTVMIVRLPFRSPDHPLHAAKCELARKKGKNPFQTVSLPEAVLTFRQGIGRLLRSAGDKGTIIILDRRIKTAGYGRLFLDALPTTSVSEMTDSELEAY | not soluble
ASQKVEKTVIKNETGTISISQLNKNVWVHTELGSFNGEAVPSNGLVLNTSKGLVLVDSSWDDKLTKELIEMVEKKFQKRVTDVIITHAHASRIGGIKTLKERGIKAHSTALTAELAKKNGYEEPLGDLQTVTNLKFGNMKVETFYPGKGHTEDNIVVWLPQYNILVGGCLVKSTSAKDLGNVADAYVNEWSTSIENVLKRYRNINAVVPGHGEVGDKGLLLHTLDLLK | soluble
MSLSSKRDIEANTDLNSITYIPTFPEPFERDNSHTTASFVSIQIRLLVASVTEENFLDTEHQIYYLLQRGSFSVYISYWKLLIQLFVNEFEAQQQKRDLNLPFRFDFSNLVHRLLYNLAQELITRTPDTIEKVKELALPLSGKYPIRPLFLSFLNKDNESDSAIIEALNPEVHPIFTTLKDLHRTNMSVSNITQNLFAVENKPNFLTMLSEFLKPLQGETLNDWIALILSEILAPGSQTSNQPSQPWIVQVPNVDVREVIEATEMGTKVNGIIKSLGTNNVNWNRVFNLMSTKFFLNKPVNATLSSLNYLFCILNSGPLVDQFFACDWSLYFKLRLSFLMYQWNYNSECLDLSSLPNIKKINKSIPLTKKSQLSLISVGKLNIELFLSRDEISKNPLFSSFHASFSEAYNNVPEYLAAVLISESKYFSLLVDNKSIIDELLISLVIKTYENNVIAFKELLKLVSKQKVIEVSRGIIASQNAQTINLVQALHDLGILDEVFEKLPIRDSLKLSPTAMHLGYLKFSEYIERNITLKTFVPTLDFIEAQTNIDELDEGHHHHHH | not soluble
DFEVGDKIRILATLEDGWLEGSLKGRTGIFPYRFVKLCPDTRVEETMALPQEGSLARIPETSLDCLENTLGVEEQRHETSDHEAEEPDCIISEAPTSPLGHLTSEYDTDRNSYQDEDTAGGPPRSPGVEWEMPLATDSPTSDPTEVVNGISSQPQVPFHPNLQKSQYYSTVGGSHPHSEQYPDLLPLEARTRDYASLPPKRMYSQLKTLQKPVLPLYRGSSVSASRVVKPRQSSPQLHNLASYTKKHHTSSVYSISERLEMKPGPQAQGLVMEAATHSQGDGSTDLDSKLTQQLIEFEKSLAGPGTEPDKILRHFSIMDFNSEKDIVRGSSKLITEQELPERRKALRPPPPRPCTPVSTSPHLLVDQNLKPAPPLVVRPSRPAPLPPSAQQRTNAVSPKLLSRHRPTCETLEKEGPGHMGRSLDQTSPCPLVLVRIEEMERDLDMYSRAQEELNLMLEEKQDESSRAETLEDLKFCESNIESLNMELQQLREMTLLSSQSSSLVAPSGSVSAENPEQRMLEKRAKVIEELLQTERDYIRDLEMCIERIMVPMQQAQVPNIDFEGLFGNMQMVIKVSKQLLAALEISDAVGPVFLGHRDELEGTYKIYCQNHDEAIALLEIYEKDEKIQKHLQDSLADLKSLYNEWGCTNYINLGSFLIKPVQRVMRYPLLLMELLNSTPESHPDKVPLTNAVLAVKEINVNINEYKRRKDLVLKYRKGDEDSLMEKISKLNIHSIIKKSNRVSSHLKHLTGFAPQIKDEVFEETEKNFRMQERLIKSFIRDLSLYLQHIRESACVKVVAAVSMWDVCMERGHRDLEQFERVHRYISDQLFTNFNGQKS | soluble
